# Experimental data: patent US20020028208A1 (TEXAS A AND M UNIVERSITY SYSTEM, published 2002)
# T1: huCD80-Ig fusion protein (human, UniProt P33681 35-241)
# T1 construct: Provided by P. Linsley, Bristol-Meyers Squibb; also called soluble CD80 receptor; soluble receptor for CD28; not shown: Ig part of the fusion
# T1 sequence (looked up): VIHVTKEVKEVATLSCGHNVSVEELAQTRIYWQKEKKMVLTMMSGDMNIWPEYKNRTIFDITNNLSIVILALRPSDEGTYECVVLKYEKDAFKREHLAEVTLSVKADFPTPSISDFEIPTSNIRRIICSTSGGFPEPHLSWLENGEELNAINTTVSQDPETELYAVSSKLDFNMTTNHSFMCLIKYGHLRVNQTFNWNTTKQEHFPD
# B1: feline CD28, surface expressed on CD28-pSI transfected COS-7 cells (receptor)
# chain: NKILVKQLPRLVVYNNEVNLSCKYTHNFFSKEFRASLYKGVDSAVEVCVVNGNYSHQPQFYSSTGFDCDGKLGNETVTFYLRNLFVNQTDIYFCKIEVMYPPPYIDNEKSNGTIIHVKEKHLCPAQLSPESSKPFWALVVVGGILGFYSLLATVALGACWMKTKRSRILQSDYMNMTPRRPGPTRRHYQPYAPARDFAAYRS
# notes: also called feCD28; CD28 pSI transfected cells
# B2: feline CD80 (B7-1)-TAMU, surface expressed on feCD80/pSI transfected COS-7 cells (ligand)
# chain: ASLFYFCSGIIQVNKTVEEVAVLSCDYNISTKELTEIRIYWQKDDEMVLAVMSGKVQVWPKYKNRTFTDVTDNHSIVIMALRLSDNGKYTCIIQKIEKGSYKVKHLTSVMLLVRADFPVPSITDLGNPSHNIKRIMCLTSGGFPKPHLSWLENEEELNAINTTVSQDPETELYTISSELDFNMTNNHSFLCLVKYGNLLVSQIFNWQKSEPQPSNNQLWIIILSSVVSGIVVITALTLRCLVHRPAARWRQREMGRARKWKRSHLST
# notes: also called CD80-pSI transfected COS cells
# Columns and labels:
# huCD80-Ig fusion protein = molecular target: T1, huCD80-Ig fusion protein; test: competitive cell-cell adhesion assay: CD28-pSI COS-7 monolayer pre-incubated with CD80 Ig at 1 ug/ml for 30 min and washed before labeled CD80-pSI COS-7 cells were added
# Procedure: (§1) Binding assays for transfected cells expressing feline CD80 and feline CD28 were performed after the protocol described in Linsley et al., 1994a. One day after transfection, CD28 expressing COS-7 cells were removed from T-75 flasks with trypsin-EDTA treatment. The cells were allowed to adhere in 24 well plates at a concentration of 1×10⁵ cells per ml. Two days later, the feCD80/pSI transfected COS-7 cells were removed from T-75 flasks with PBS/0.5 […] EDTA. These cells were then fluorescently labeled with a 5 μM solution of Calcein AM (Molecular Probes, Eugene, Oreg.) in sterile PBS/1% BSA for 30 min at 37° C. (Akeson and Woods, 1993). Mock transfected COS-7 cells were labeled in the same fashion. The labeled cells were then washed three times with DMEM plus 10% FCS to remove unincorporated label, counted, and added directly to the monolayer. The two cell populations were allowed to interact for 1 hr at 37° C. Nonadherent cells were removed by gently washing the monolayer 3 times with DMEM +10% FCS. Following the washing, the fluorescence of each of the wells was quantitated on a microplate fluorimeter. Fluorescence in wells containing transfected populations was compared to wells in which CD80 expressing cells were added to COS-7 cells transfected with pSI plasmid alone. […]
# [1] = molecular target: B1; test: cell-cell adhesion assay at 1x10^6 labeled CD80-pSI COS-7 cells on a CD28-pSI COS-7 monolayer; still significantly higher at 5x10^5 cells, not distinguishable at 1x10^5 and 1x10^4
# Procedure: as §1
Binder,binding result (huCD80-Ig fusion protein),"fluorescence retained, fold over wells with mock transfected adherent cells [1]"
B1,binds,
B2,,~5 fold
